# Assay: protease stability score; higher = more stable; yeast display proteolysis, trypsin and chymotrypsin;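 also: relative to predicted unfolded state with 0 unfolded-like and 1 meaning tenfold more protease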
row,Sequence,protease stability score
1,DEDRIISEEAAKLFLHLLLTGDEKVFDEYLDPRTRLIIGDKEFIGRETLRKTMQEFRHKAGIDHMHIRDSRIELIDGRVVQHLEIHVRFNGKSEDRVIHVFIEKINGRWHIHFVEVKID,1.53
2,NEIEEIVERLWRLYIQNRLTGDEDQMSRLADPHTRVHIHIGDKHIDIHGMENTARLTTKLRREIRMEIEIHHVTVQGNKLHAEVRLILHIGDKILESDTRIINIFVDGKLRTVHIHIE,1.32
3,DEVDEDEKHALHLLEHSIKTGDERMITEMMDPRYRLIINGQEFHGRELWIELWQRIKNIRINDVKFEELRVVGNKLRVRVHLDVQIGDKRYILDTEIVAVKVNGRWLNEEIIIR,1.39
4,SEEDKWAEIMARLMSYLNHTGDEENFDRLADPDVRMDINGREVHGRETFNRYLRHIRIRFHDLISRDSTEVNGVLIIHGESDITIEYDGVRLRDHPKSVFYVLKINGRWRIKSISFH,1.41
5,SEEDKMVEDWLREWIELHLTGDFEQWESLFDPNTRSRAHVGDKRFESHGREQVVEVRHEIKREMRITDIDDKHIRVFNGRADLIGFMRGDINGRHVRLEIHVILVIVNGKRKEEEVRIH,0.155
6,SEDDEKIERWLHIILRAFETGDERILQELMDPNTRMDINGVEIHGRERVTKELHRIRKELGADHIEVRLTDEKRVNGRLRLHTQLHFHQGNKLIIIESRILFEKYDGKWMIESMSEK,1.05
7,SEEERVAKHVSHNLFESLKTGNEEEIEKFFDPNVKVQVGEFEHHGREAVLFWFHEFGIKHIHFHEERVQGDKMHSHLNLIVNGRHISHHIHFHKINGRWHITHQRFH,0.828
8,SEDDDSAREILRILTEAWYTGNEDELIRLMDPNARSLFDGVEFHGRELVRLWKERVDHTHSIKVKLHSMRIIGNKLEVDGRLEQEGEINGRRFLIVVEVHLIILKVNGRWRMHSVEVR,1.68
9,RDMEHIMKELIHFVLHAVMTGDEEKMRQYADPHVKLNYNGVEVVGMEEILKIWRHIRIEIEDHTVEHISVVDGKLRSDTRVDVHIEFNGRHIRENLHTHVIIYKVDGRWVFKEVRIK,1.84
10,SEDEERARRFFEELIHVLHTGDEDSLIKMADPSVRLDFNGVEAVGREEFERMFKEIWREIRLEDLTSHHIDVFNGRIRIESKSHIEVNGVQITRDELVIVTKINGKWHLHSREVK,1.56
11,DEDEENFERLVHLTLHYLLTGDFEDFNHLADPHVKLNVNGQQHVGREKWSELLHLFGINHMQIEERDLRVIGDKVRLDVRGTSQVGDKEHEVHIHIHAQKVNGRWTVTEMQINTE,2.1
12,TEEEETARHMVHEFYEVIKTGDEETFRKLLDPNTKLHVNGKERHGREAIDEMYHRFKNVRIHVEHVDVVDGKIDLRENWIQGDKETIVRIEAHKVDGRWELRSVHIH,1.36
13,DERDELVRQLMEWLVRAYITGDFETLKNLFDPNAKVRVNGRELIGMETFWQLLWHLRFTDHKIDSVEMQGEKVTVNVTLFIDVNGREETKKSHLIFVVVNGRLKSMDFRYE,1.66
14,REEEERVEHLARLVFRALMTGDEDEYKHLADPDDRLILVINGRRQEFHGMEVVLEWLRHLLKEIRIHHSHIHDVKVIGDKVDFDTSVDVEYNGQRHWRKMRVIIIIVNGRYRSVEIILE,2.26
15,DEEEEYLHKRAREFFRSFLTGDWHFLMHLLDPNVRWEVIIGNKRIERHGREELFKDLLRWLEEIRIKRMHVEEIHVFDGQLFMRVSAHGEFNGKERDTHEELVVVVVNGRFKSARIHVH,1.65
16,SDLEEEINRFLTELLRDWETGNWKAFADLLDPHTRVLIDGKEHHGREIFLEHNHQLGIKHREFELKKFRIFENRVEFDGTLHLVYGDKRVHREIHIIILKIDGRWKITEIRFL,1.54
17,SEEEEQVERFLRLWLHALRTGDEDTHERLMDPNTRIQIGNFIFHGRERALKVVHHLIRQIDHIHDFDIHDVRVQGNKVHVDVRLNTHFDGRTIVLNLHIHIHKVDGRWLFTSLSRE,1.23
18,TEDDELLHRAERLVYHSLLTGDFHTLKHLMDPHVRTHIDGRDTHGRDKATNFFIKYWEDLGVKHITYEDMHVHFFEGHLTVLLIVKLNIDGRERRNVYIFIFMKIDGKWLNHEVHIHIN,0.651
19,NKMDEYAYKMLELWLEAFLTGDFEFIEKNLDPHVRSRINGVELIGRHLYLEMVRREMEEIRVKDVHPRRVEIIDGVVHFHGEWNGQVNGRETHKEHEVEIIVVNGRLKSVIFRIR,1.27
20,DEEDEELHRILQLLKEYWKTGDWERFHELADPNPLLIINGVENHGMDSVKHAWEEFRRRIDHNEKIEDKDSKRQGEFIVLHVKVDGHVNGRRTETDMHIILLIVNGKVKDVEIRIR,1.38
21,SEHDERRRRVLELWFHALHTGDEEKLQELMDPDARLDINGVKLHGRDKLIEFFREWRFKHVDIHDMDEFNGVVNIKIEHVEIYNGQHRRVETRIFLIKINGRWHFRHIELH,1.66
22,DELERRSRDLVELFITALKTGDEDLFSRLIDPNALTWVGDKEQVGWHTDVKMFEDLGLTNFDFHLRSKEIRIIDGKLHTIINGSININGKETDTEIRITISKINGRWQLSSVFVRLH,0.786
23,SEEEERMETLTRLLDHAWHTGDFDFLSKLLDPNTRVVQGEFHHHGRHALRKILHDLNRIMGVDHSDIEDREIQGDKIHIHVRIEVNGRVVDSHINIIVVDGRIKTVEMTIR,-0.216
24,SHEEHLKRDMLERSFKAWLTGDEESLHELLDPHVRVHFNGRDFHGRELVSTLIREMLRWLGIKHSRFHHIQVFDGKARLELRLEQGEFEVEIEVISLKVDGRWFQHELRFH,1.02
25,DESEELSRIASHLFLRMMHTGNEEEISKLADPNTRLDVNGKHFHGMELIIHFLHELRRKLGVKYIRLKSVHITIVNGKVDLELEGDLLQGDFEIPSHIRNIALKVDGKWFIHRQEFRFE,1.32

row,Sequence,protease stability score
1,DEDEEALDRFLEEWRRYFETGNWEMISNLVDPHARLEQGDKRFHGREEVAKYIHHLVRHMRINDFDIEHRDVQGDKIRIHLRLNGEIDGRRTEFEIHMIYIKVNGRWVVKSMVVN,0.882
2,DEDEKVSHHAYKLIEHLFLTGDESTWMRMADPRTRIIIGDFHLIGREEWARVLKEILDRLGFKHIQFTDREVRVYGEKVHVELHLLLIQGDKEIRVELRYISDKIDGQWRYHSVTHHIK,0.998
3,SEDHKETEEAMHKIRHDLETGDEKSWHEQADPNTRIDINGVDLHGREWASKFYSDVMQKVKGATVHLKHVHIFENRLIVDGIEIVNGRTHRVHLIADKINGRWVIREIRVE,1.06
4,HEDEEIVKTFAKIRTELERTGDWETIMRLLDPHVRMDIDGVRVHGMEEVVRHIREFEEKFGVTNVQSRFRDVRIIGDKVDIHSQVHINGVEKNLHIHVEKFNGKWVITEIKIE,1.28
5,DESTEHLHRFFDLLIEWIRTGDEESLNKNADPNTRVEAENHEEHGREKFSKHLSEIMTHMRSHFVLRHVSFVGDKAIFDVEVIIIVNGREIKVRTFIIVVKINGRWLLKSVHIE,1.6
6,DEIREESERFARKLVHDWQTGDWRSLLLLMDPNVRLILHFNGVEYRFHGMEIVLEWLKRLIERVDHVFFHVKDIRIQGDKIELRIEEEFRQGDKSRRHDVVLHLVVIDGKIKSISFEVL,2.7
7,HEDEEISQNMMETMLRIIHTGDWHRFTELFDPHVRIEVNIGDKHLESVGREEARKWLERFKNRRTEIRDAKVRVQGDKVEIRIDGNVNVDGKEKHVEIILYIEKIDGRWLVHSVIIIIE,2.13
8,SEDEEWLHMAFELFAEAMRTGDEETLREYLDPRVRLVVGDKNLHGMEIVMRHFLEWRVRDVKIERIRVINGQLHIDGRLRVEFNGQEKNVDLTLILDKYNGRWRNRTIELR,1.69
9,DEVIEELERFHRTYQHAVHTGDEETHADLMDPNVRIHIGDKHIHGREWLIELVHRLGFKHSKEHWIIRRYDLQGNKVDEDGEVKRILNINGVLEHEERRVRIIILKIDGKWIIHSMHIR,0.433
10,SEEEKESEDSMRILEHYFHTGNEESLLKLADPHVRSEINGKIHHGMDLHNEIWKHFVQQFKGARPTSLNFKDVEIQGNKAEFHIELVLTIGNYSIHLEMHIFNEKVDGRWLIRSTYIR,1.08
11,SEDHEALHKFLKELIESSRTGDWEDVTRLADPHTRQDFNGKILHGREELKETLKELGINHMEVILNRIDVQGDKAHVDGHLVIYYNGKEITREREIRMVKIDGVWLMHEVRIK,1.15
12,DDHDKLMQDLTSMFVRDLITGDEKSMDELLDPDVKVDINGQETHGRDHFLEILNKNLKEWRVKDVKIEHVEWYGNKAHIRMEVIGNWNGKEHSLDFELHLLIVNGQFKEIRIKIR,1.5
13,TEEEEAAKRVFRLLLENAKTGDEDHLRELIDPNVRIHVDGRTLIGMEQFKRFWSEMRVHHWDQKSVDFVNGRVHSDTIINSHVDGQTIHIDVRIIITKIDGQWVVESFSVS,1.17
14,SELEKFHEESLKSVLESWITGDEHLNRDLVDPDAKLNVNGREHHGWELITILLSQMRVHDFKRRDIRFQGDKIFIDGEIDGEINGQRIRLRIDIIAVKVNGKWLIKEVRVH,1.69
15,DEEEQLFHEAHDKFIKIMETGDWKDFHRNFDPDAKIEVGDKDKHGREEATEMLKFILDLLGVDHVLVKRLRIYGNKIESDVVFNVNGVEQRFHLISVKINGKWRTHKIVLR,1.23
16,SELEHMLREVLHLLYESLETGDEELLETLVDPRMRLYINGQLIHGMDLAVEIELRRSREMRFRDWKIHSIHVQGNKAFMDVRHVGQINGVHISLEHEILIHKINGRWTIEERITK,0.43
17,SELEEENRQALKESLREWETGDEKRLHENADPNARLQYGDKHYHGRENVSHMLTHIIEKFGIDHMRVRDFRVQGEKVETHVELRVGDKHLHIRIITMKVNGKWLFHSVHMHIE,0.997
18,SEDEEWSRLIVEEFIKVLDTGDERLTSEMLDPNARIVIGDKHIHGRESLVELIHRIKNIKFDFKHVNTQGDKVEVDGTIVFNGRTTTVLIRMKKVNGRWFVTEIHIE,1.9
19,TEEDEFWERYVQLLRELWITGDEETWKNLADPNTRLHINGVTAHGREEVEHVYKKILEDLGIDVRHIHRIDVQGDKMRIDSRNNIDGQIFRLHIENHFVNGRLQFIRMEVH,1.25
20,DELKEILLRIIEKMLHALLTGNFEELLKNVDPRTRNDINGVDAVGRENIKRVWEEILRRIDHWEEVRIEDFRVQGDKVHIDGRLIMRVDGRREDTTTHLHIIVFNGRVESIKFEIR,1.57
21,SEQSKHVKDMFDTWVHSERTGDWRVAKELVDPNARIDINGREFHGMEEAERLAHEIFTRIDHKELRIDHVHFINGVFKVEGTVIFRQGDKQFTIETRIHLFVINGRLKELKVEFI,1.15
22,DETKQETDRLVKMMLHAITTGDEKFIHHLIDPNVRLEVGDKSFHGREDAFEMLRKEWEDLGVKVYKPETYKSQGDWVHFHGKEHVGDKEIELNIHIHVVDGKIKFIRIEIH,1.2
23,LEEEEEAKTMIEHHFDNFRTGDEDLIHKLADPHVRVLYNGKILHGREKLVEMIHKLVEKMGVDHLEYRHRDMKIWDGQVEVHGERIIRQGDKTYRFDVILFVLKVDGRWVIKEVRVQ,1.47
24,DEDEKWAERFLELLIRSLVTGDEKTLEELADPRVKVEIGDKILHGRDEFERFIHEARIKSVHVRRMTDINGVMLMDGETTGNIDGVDRRRRTRIWVLKINGQWHLHSYQVV,1.41
25,SEEYENAEKLTHHLTEILQTGDEQKLHELVDPHVKIHVDGVELHGMERYQELVDHWRIDSHTLHDFKIIGDKARVDSRVILTIGDKKERISLRFILVKIDGQWLNHEVEFN,1.79

# Source: the NTF2 design screens of Basanta et al. (2020)
